Experimental data as given in paper PMC9935901 (2023).

Key:
[1] = molecular target: Cell-penetrating FaP3 (CP-FaP3); assay: SPR
[2] = molecular target: Cell-penetrating FaP2 (CP-FaP2); assay: SPR

B1: β-catenin (surface plasmon resonance) (natural protein)
chain: MATQADLMELDMAMEPDRKAAVSHWQQQSYLDSGIHSGATTTAPSLSGKGNPEEEDVDTSQVLYEWEQGFSQSFTQEQVADIDGQYAMTRAQRVRAAMFPETLDEGMQIPSTQFDAAHPTNVQRLAEPSQMLKHAVVNLINYQDDAELATRAIPELTKLLNDEDQVVVNKAAVMVHQLSKKEASRHAIMRSPQMVSAIVRTMQNTNDVETARCTAGTLHNLSHHREGLLAIFKSGGIPALVKMLGSPVDSVLFYAITTLHNLLLHQEGAKMAVRLAGGLQKMVALLNKTNVKFLAITTDCLQILAYGNQESKLIILASGGPQALVNIMRTYTYEKLLWTTSRVLKVLSVCSSNKPAIVEAGGMQALGLHLTDPSQRLVQNCLWTLRNLSDAATKQEGMEGLLGTLVQLLGSDDINVVTCAAGILSNLTCNNYKNKMMVCQVGGIEALVRTVLRAGDREDITEPAICALRHLTSRHQEAEMAQNAVRLHYGLPVVVKLLHPPSHWPLIKATVGLIRNLALCPANHAPLREQGAIPRLVQLLVRAHQDTQRRTSMGGTQQQFVEGVRMEEIVEGCTGALHILARDVHNRIVIRGLNTIPLFVQLLYSPIENIQRVAAGVLCELAQDKEAAEAIEAEGATAPLTELLHSRNEGVATYAAAVLFRMSEDKPQDYKKRLSVELTSSLFRTEPMAWNETADLGLDIGAQGEPLGYRQDDPSYRSFHSGGYGQDALGMDPMMEHEMGGHHPGADYPVDGLPDLGHAQDLMDGLPPGDSNQLAWFDTDL
[1]
  Kd: 61.9 nM
[2]
  Kd: 194 nM
